Results reported in the DeepSol protein solubility set.

Assay: soluble on expression in E. coli; label from the status in PepcDB or PDB records

| Sequence | soluble on expression in E. coli |
| --- | --- |
| MTLRSQDPRIAIIGGGIAGATAAVHLGELGLNVVLMEKSAGLVSGPPICHLHAGGNLYREISEQQCIDLLEQSIETVRLYPHTLNVRPTLIAIPQSDPGQPEEILPRLVTIQNAYRKLVEQDAANQVLGAVDNYYRLYQREELERLAQQQQANPPQSDDEWVIPFAQHADLAQLKYPVVLVQEYGWSVFRLAASVDLTLEALPNCQVMLRTELVDATFQDNQWRLTYLDAQGERHTQTVDYLVNACGFETGRVDDMARHHRQRLVEFKAAYVTHWPACHQWWPEVIFHGPRGSEDGMAQLTPYADGTFQLHGMTESITLFADGLVASTPTSAQPQLPLYLQHKIERGWPMSAQQERTVRAIQHMSRFVPSFDNAEFAGKPLFGAQQIPGDDVTLRAADVSFEANQYARLEVVKGSSALRAARQLVAVWQLKPDAGELSIETEHPCSMAFTAQQVEQQAIRLCHARGYPAALAKVYGLLEHHHHHH | soluble |
| MTLTAQKNSWWVGAHAGREYFNNTSEDMKKGWNTGVVLRYYFSDRIYSLATLNYGFASSLSPSGYFDELGNSPNARFRRHSILPAVGLGYEFFQGDFYSCYAQGGVGYGMEYNSVSYPQEYDVSVKRFGWLAELGGDYFLRDNLSLGISVAHLRVGWRNNWTANVKLSICLL | not soluble |
| MTLYRLHEADLEIPDAWQDQSINIFKLPASGPAREASFVISRDASQGDAPFADYVARQLENAEKQLPGFKLHKRWDINIHGHAAVLLDYQWQREGRDLMLRQVFIERRPAVLITTLTTTPADLPHHEPAWKQAMQTLVPRPTPS | soluble |
| MTMFGKIFSKKTPKTDIKSNGEALNASEIEQFIKDTLSHYISDNFPQGVLAVCQQLSITQKKKITIKLLMPFVCQGELDLLAQTLSENLARTVNFEIDLAIKPVRQFSLGNDKNKAGQEGMLQGKVANIIAIASGKGGVGKSTTTVNLAYALMCEGARVGILDADIYGPSIPSMLGLKNEKPSSSDGKLMTPVDAKGLSAMSIGFLVDEADATVWRGPMASSAFNQLLNETDWPELDYLLIDMPPGTGDIQLTLAQKVPVAAAVIVTTPQDIALIDAVKGIAMFDKVKVPVLGIVENMSYHLCENCGHKSHIFGEAGGEHMAEDHETKLLGQLPLDITIRQDADFGESDIIENSAGEIANHYRKIARNVSAQLFLQCDTASPLTATVAHKALEHHHHHH | soluble |
| MTMKGGVASQDFSAAIATACEPAANVWSKVCVALKRELGDAAFGSWIAPAMLREAATGDVVLVTSTGIARDWIRRSAWRRIGELWAAHDATGRRIDLKSRLEFEAAAGAYVEATPKAVAAEPIEIVLPVSTDAPTVVAPSAKSPRTQGLQERFTFETFVPGPANEFAHAVARRIANWADGHFNPVLFHGPYGFGKTHLLNALAWEAMRNAPEKRVVYLTAERFLSTFVRAVMDRQTAAFKEELRAADLLIIDDVHFIAGKQSTQEELFHTLTALVGEGGRVVFSADRPPSAMTEMDAHLRSHLSAGLVCGLEPADRNLRLGILERKIQTLGAAHGFEPSIRPEVMQFLADRFTDSVRELEGALNTLSARAGEGLSRMTLDEVQAILRPHLRSGEKRITIDDIQKATAEHYGMKQADLLSERRNRAVARPRQAAMWLAKQLTTRSLPDIGRRFGGRDHTTVLHAVRRIEALRAEDSALSHDLETLTRKLRGLEHHHHHH | not soluble |
| MTMLKNNLELLKKRYPEIYNEIKDIHVDSNAYQIIQNNEGQKTLKVTLDLYGENKSFFLHSKYHPDVEADRFAREQYKPEFSIQILYGFGLGYHVEKIAGLLKPDSMLYVIENNLMVFRSALENMDLCPILENRNVSLIVSKDVGYISEKVKELIDNNLDKVSFITHPASLKAIPEENEYFKFVMENWNLKKSITDDYDNTLRNNAKENLKLNSPNVGIFFDKFKDVPIIIVSTGPSLDKNIDLLKEAKGRALIISAGSALRPLLMRNIKPDFFAIIDPQDITYNQIKGYENIGIPFIYLVTAASYTVSRYLGPKLVAYYGKYNNSSEHLVDSGGSVATTILDIAIKMGGNPIILVGQDLAYVDGKNHAQYGSHASIYSPELKNMRRVKGQNGEMLYTSLGLLSYKYWIENRIQKEKRIFINATEGGAYIEGMKHIKLRDVISDYLKESFDFENKIKSILKESGIQHVQG | soluble |
| MTMQHASSAGRRPAVPVYLKIRNAIRDAISNAAYAPGDLLPSETELAKRYATTRATVVHAIQQLVFEGLVERKRGVGSFVAQPKLSSTVDTHRVAYFEQDAFARDLTYEVIGYGKAVVEDHVRDTLRLGRGEPVYRLQRLRLLLGKPIAFELRYLPALVGARLTAEMLARRSVQSLLDEEVGMPITRFLNAVRVALVPAAVARHLQLEKGRPVMVRTHTFLDAADTPLLWGETLYREEYQINYVLTAMQAPDEAVGGRPRKGAGRA | not soluble |
| MTNLFLCSLRFQFVVVCTRYDQSVGFSTEEHNIVEDASGFVTQHSSGSTLNESSRSCLQLVIVSQRNLEVYLGRDNVETLRKIGEANRGEFSKDFSVWCKTVFESMSNAYVSSLETEQSNVTSRVTRNIRPRTNEENRMQMEELQTAMQVERSVAASSSLSSSFDWNAFLRDRCGLSEEDVAYCLPKLSFIGMIDLSGVTTEFLLKCGIDSPSLRLRIMLGIRQLLAK | not soluble |
| MTNLFVRSGISFVDRSEVLTHIGNEMLAKGVVHDTWPQALIAREAEFPTGIMLEQHAIAIPHCEAIHAKSSAIYLLRPTNKVHFQQADDDNDVAVSLVIALIVENPQQQLKLLRCLFGKLQQPDIVETLITLPETQLKEYFTKYVLDSDE | soluble |
| MTNLPMNKLIDEVNNELSVAINKSVMDTQLEESMLYSLNAGGKRIRPVLLLLTLDSLNTEYELGMKSAIALEMIHTYSLIHDDLPAMDNDDYRRGKLTNHKVYGEWTAILAGDALLTKAFELISSDDRLTDEVKIKVLQRLSIASGHVGMVGGQMLDMQSEGQPIDLETLEMIHKTKTGALLTFAVMSAADIANVDDTTKEHLESYSYHLGMMFQIKDDLLDCYGDEAKLGKKVGSDLENNKSTYVSLLGKDGAEDKLTYHRDAAVDELTQIDEQFNTKHLLEIVDLFYSRDHKGHHHHHH | soluble |
| MTNSSSSKKQAQDQPETSEPTLKSLKTKMTKSDEKQKKLKDIEISVPIVYGNVAFWLGKKASEYQSHKWAVYVRGATNEDISVVVKKVVFQLHSSFNSPTRVIEEPPFEVSESGWGEFEIAMTLHFHSDVCDKPLSLYHHLKLYPEDESGPLTMKKPVVVESYDEIVFPDPSESFLARVQNHPALTFPRLPSGYNLPAPMQVEDTGKKKRGDTKDHSLGQWFMSFSEADELLQLAAARQQVQAHIAKLRRQISLLEGQNQTVKTGSDL | not soluble |
| MTNTSFDNSTIVVGVAGGIAAYKSCHVVRGFKEDGANVVVVPTSAALNFVGKATFEALSGNPVSTTVFDAVDEVRHVNVGQHADLIVVAPATADLIARVAMGRADDLLTATLLVATCPIVLVPAMHAEMWSNAATRENVATLRRRGIIVMDPAHGRLTGADTGPGRLPDSDQIIDFAKTVARTKVMPRDLVGKKVL | not soluble |
| MTPDLKTSPPPATLFSEDAEAIAKYLDESAKNGRDSGKNKSTQIRRFYDELVGWQERIGTDEQKFRDYAAFIHMLNAKAAYAQGRNLVTREFVQWLRDCIKQIDGPRTLNHFRLHFEAMIGFLKAIRG | not soluble |
| MTPLSALTSNPAPSPPPKFALGKCPATAIHVVSVLRPNRQRFCYEKTDAGDLIPHKCLICQPILTEKHISPYYAVYSDLLEDFVLFGYNTMTGKMEQFIYAFKTDCFVEVNRPEIKYNPAFLVKGNVVVALNGPEGELVVIERDCRGLLSKESTSYGQFRTLPTAALRTLTLQDLERDRWDRAANSDEVKISSGNESFDRLYAEYQKNLPRFQVRQCLHLNKEFLCVYSKTSGDYTRLEYIDETGDFQKISCTLCTCEVTESNLIPLYVERNASELVIHVHNTENNQIEQYIYDVRTFGFVQVKRNLVYDPKKITSGLNLFMAENIDNRKVYMIMRGRDGRLQKETSGSGGFEKMQPVAVKTFQVQWVEMKTEFEKKKASTERVEPQHPVQTEGEDIMETVLAMVESFNCDLRKELGLTQDQEIPRKAPRVESAETEENIVKNLEKLQIAKDPEEPTTAASEGGNTYGYQELDDTMSEGLLEKEAESKHQDANEPEPVKNVTYEPDVAAMDKKKKRRELKSRLNKINAQIDELEKRRMERAGKKQVVSSSVPSEEAAQVEAPASPALAENTNQISNEETPKIDIFEGYNGSFLFGTNTSKEWIVEDIRNHMVGKLLKAFWPRIQNVEEMNGELFKKLIANARKCETEILEASNDRDEYYRLMQLTVDQILKKTLKKDQRATEHNHQQPTQSSDELAKNHEKN | not soluble |
| MTPLSSPLSQYWQTVVERLPEGFTETSLSVQAKSVLTFSDFALDSVIAHPEWLAELESASPQADEWRHYAGWLQEALAGVCDDASLMRELRFFRRRIMVRIAWAQTLSLVDDETILQQLSHLAETLIVGARDWLYAACCREWGTPCNPQGVPQPLLILGMGKLGGGELNFSSDIDLIFAWPEHGETRGGRRELDNAQFFTRLGQRLIKALDQPTMDGFVYRVDMRLRPFGDSGPLVLSFAALEDYYQEQGRDWERYAMVKARLMGDNDDAWSRELRAMLRPFVFRRYIDFSVIQSLRNMKGMIAREVRRRGLKDNIKLGAGGIREIEFIVQVFQLIRGGREPSLQSRSLLPTLDAIAALHLLPENDVAQLRVAYLFLRRLENLLQSINDEQTQTLPADDLNRARLAWGMKAENWPQLVGELTDHMANVRRVFNELIGDDEADTPQEEERSEPWREVWQDALQEDDSTPVLAHLADEERRQVLTLIADFRKELDKRPIGPRGRQVLDQLMPHLLADVCSREDAAVTLSRITPLLAGIVTRTTYLELLSEFPGALKHLIMLCAASPMIASQLARYPLLLDELLDPGTLYQPTATDAYRDELRQYLLRVPEEDEEQQLEALRQFKQAQLLRIAAADIAGTLPVMKVSDHLTWLAEAMIDAVVQQAWTQMVARYGQPAHLDERQGRGFAVVGYGKLGGWELGYSSDLDLIFLHDCPMDVMTNGEREIDGRQFYLRLAQRIMHLFSTRTSSGILYEVDARLRPSGAAGMLVTSADAFADYQQHEAWTWEHQALVRARVVYGDPQLTSQFDAVRRTIMTTARDGKTLQTEVREMREKMRAHLGNKHRDRFDIKADEGGITDIEFIAQYLVLRYAHEKPKLTRWSDNVRILELLAQNGIMDEHEAQALTVAYTTLRDELHHLALQELPGHVAQTCFSKERALVQASWRKWLVAV | not soluble |
| MTPPEERQMLRETVASLVAKHAGPAAVRAAMASDRGYDESLWRLLCEQVGAAALVIPEELGGAGGELADAAIVVQELGRALVPSPLLGTTLAELALLAAAKPDAQALTELAQGSAIGALVLDPDYVVNGDIADIVVAATSGQLTRWTRFSAQPVATMDPTRRLARLQSEETEPLCPDPGIADTAAILLAAEQIGAAERCLQLTVEYAKSRVQFGRPIGSFQALKHRMADLYVTIAAARAVVADACHAPTPTNAATARLAASEALSTAAAEGIQLHGGIAITWEHDMHLYFKRAHGSAQLLESPREVLRRLESEVWESP | not soluble |
| MTPRKPAVKKEVKEEEPGAPGKEGAAEGPLDPSGYNPAKNNYHPVEDACWKPGQKVPYLAVARTFEKIEEVSARLRMVETLSNLLRSVVALSPPDLLPVLYLSLNHLGPPQQGLELGVGDGVLLKAVAQATGRQLESVRAEAAEKGDVGLVAENSRSTQRLMLPPPPLTASGVFSKFRDIARLTGSASTAKKIDIIKGLFVACRHSEARFIARSLSGRLRLGLAEQSVLAALSQAVSLTPPGQEFPPAMVDAGKGKTAEARKTWLEEQGMILKQTFCEVPDLDRIIPVLLEHGLERLPEHCKLSPGIPLKPMLAHPTRGISEVLKRFEEAAFTCEYKYDGQRAQIHALEGGEVKIFSRNQEDNTGKYPDIISRIPKIKLPSVTSFILDTEAVAWDREKKQIQPFQVLTTRKRKEVDASEIQVQVCLYAFDLIYLNGESLVREPLSRRRQLLRENFVETEGEFVFATSLDTKDIEQIAEFLEQSVKDSCEGLMVKTLDVDATYEIAKRSHNWLKLKKDYLDGVGDTLDLVVIGAYLGRGKRAGRYGGFLLASYDEDSEELQAICKLGTGFSDEELEEHHQSLKALVLPSPRPYVRIDGAVIPDHWLDPSAVWEVKCADLSLSPIYPAARGLVDSDKGISLRFPRFIRVREDKQPEQATTSAQVACLYRKQSQIQNQQGEDSGSDPEDTY | soluble |
